According to article PMC9287719:
Like-named read-outs stand apart in the source and are kept apart here.

Key:
[1] = molecular target: Recombinant FcγRIIIa (F158) with C-terminus Biotin (human) (UniProt P08637); assay: BLI; Octet Red; biotinylated FcγR-AviTag loaded on Streptavidin biosensors (~0.5–1.0 nm); antibody in solution, 75 nM-1.17 nM for FcγRI, 5000 to 78.125 nM for the other receptors; PBST (PBS, 0.02% Tween20) pH 7.2; 60 s association, 60 s dissociation; steady state, one-site fit
[2] = molecular target: Recombinant FcγRI with C-terminus Biotin (human) (UniProt P12314); assay: as above
[3] = molecular target: Recombinant FcγRIIa (H131) with C-terminus Biotin (human) (UniProt P12318); assay: as above
[4] = molecular target: Recombinant FcγRIIa (R131) with C-terminus Biotin (human); assay: as above
[5] = molecular target: Recombinant FcγRIIIa (V158) with C-terminus Biotin (human); assay: as above
[6] = molecular target: Recombinant FcγRIIIa (V158) with C-terminus Biotin (human)
Target sequence in this assay (P08637 17-208 F176V): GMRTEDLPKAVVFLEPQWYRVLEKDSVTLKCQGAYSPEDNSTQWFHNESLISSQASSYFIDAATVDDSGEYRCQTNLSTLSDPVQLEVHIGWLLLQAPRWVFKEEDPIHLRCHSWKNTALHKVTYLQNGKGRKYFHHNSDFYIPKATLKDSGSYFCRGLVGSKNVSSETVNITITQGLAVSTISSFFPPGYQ

[7] = molecular target: Recombinant FcγRIIa (H131) with C-terminus Biotin (human) (UniProt P12318)
[8] = molecular target: Recombinant FcγRIIIa (F158) with C-terminus Biotin (human) (UniProt P08637)
[9] = molecular target: Recombinant FcγRIIa (R131) with C-terminus Biotin (human) (UniProt P12318)
[10] = molecular target: Recombinant FcγRIIb with C-terminus Biotin (human) (UniProt P31994); assay: other; qualitative only
[11] = molecular target: Recombinant FcγRIIIa (V158) with C-terminus Biotin (human); remark: listed apart in the source
Target sequence in this assay (P08637 17-208 F176V): as above

[12] = molecular target: Recombinant FcγRIIIa (F158) with C-terminus Biotin (human) (UniProt P08637); remark: listed apart in the source
[13] = molecular target: Recombinant FcγRIIb with C-terminus Biotin (human) (UniProt P31994)
[14] = molecular target: Recombinant FcγRIIa (H131) with C-terminus Biotin (human) (UniProt P12318); remark: listed apart in the source
[15] = molecular target: Recombinant FcγRIIa (R131) with C-terminus Biotin (human) (UniProt P12318); remark: listed apart in the source
[16] = molecular target: Recombinant FcγRI with C-terminus Biotin (human) (UniProt P12314)
[17] = molecular target: Recombinant FcγRIIIa (F158) with C-terminus Biotin (human) (UniProt P08637); remark: listed apart in the source
[18] = molecular target: Recombinant FcγRIIa (R131) with C-terminus Biotin (human) (UniProt P12318); remark: listed apart in the source
[19] = molecular target: Recombinant FcγRIIa (H131) with C-terminus Biotin (human) (UniProt P12318); remark: listed apart in the source
[20] = molecular target: Recombinant FcγRIIIa (F158) with C-terminus Biotin (human) (UniProt P08637); remark: listed apart in the source
[21] = molecular target: Recombinant FcγRIIIa (V158) with C-terminus Biotin (human); remark: listed apart in the source
Target sequence in this assay (P08637 17-208 F176V): as above

[22] = molecular target: Recombinant FcγRIIa (R131) with C-terminus Biotin (human) (UniProt P12318); remark: listed apart in the source
[23] = molecular target: Recombinant FcγRIIa (H131) with C-terminus Biotin (human) (UniProt P12318); remark: listed apart in the source
[24] = molecular target: Recombinant FcγRI with C-terminus Biotin (human) (UniProt P12314); remark: listed apart in the source
[25] = molecular target: Recombinant FcγRIIa (H131) with C-terminus Biotin (human) (UniProt P12318); remark: listed apart in the source
[26] = molecular target: Recombinant FcγRIIIa (V158) with C-terminus Biotin (human); remark: listed apart in the source
Target sequence in this assay (P08637 17-208 F176V): as above

[27] = molecular target: Recombinant FcγRIIa (R131) with C-terminus Biotin (human) (UniProt P12318); remark: listed apart in the source
[28] = molecular target: Recombinant FcγRIIIa (F158) with C-terminus Biotin (human) (UniProt P08637); remark: listed apart in the source
[29] = molecular target: Recombinant FcγRIIb with C-terminus Biotin (human) (UniProt P31994); remark: listed apart in the source
[30] = molecular target: Recombinant FcγRIIIa (F158) with C-terminus Biotin (human) (UniProt P08637); conditions: domain or fragment
[31] = molecular target: Recombinant FcγRIIIa (V158) with C-terminus Biotin (human); conditions: domain or fragment
Target sequence in this assay (P08637 17-208 F176V): as above

[32] = molecular target: Recombinant FcγRI with C-terminus Biotin (human) (UniProt P12314); conditions: domain or fragment
[33] = molecular target: Recombinant FcγRIIa (R131) with C-terminus Biotin (human) (UniProt P12318); conditions: domain or fragment
[34] = molecular target: Recombinant FcγRIIIa (V158) with C-terminus Biotin (human); remark: listed apart in the source
Target sequence in this assay (P08637 17-208 F176V): as above

[35] = molecular target: Recombinant FcγRIIa (R131) with C-terminus Biotin (human) (UniProt P12318); remark: listed apart in the source
[36] = molecular target: Recombinant FcγRIIa (H131) with C-terminus Biotin (human) (UniProt P12318); remark: listed apart in the source
[37] = molecular target: Recombinant FcγRIIIa (F158) with C-terminus Biotin (human) (UniProt P08637); remark: listed apart in the source
[38] = molecular target: Recombinant FcγRIIa (H131) with C-terminus Biotin (human) (UniProt P12318); remark: listed apart in the source
[39] = molecular target: Recombinant FcγRIIIa (F158) with C-terminus Biotin (human) (UniProt P08637); remark: listed apart in the source
[40] = molecular target: Recombinant FcγRIIIa (V158) with C-terminus Biotin (human); remark: listed apart in the source
[41] = molecular target: Recombinant FcγRIIa (R131) with C-terminus Biotin (human) (UniProt P12318); remark: listed apart in the source

Sequence of Recombinant FcγRIIIa (F158) with C-terminus Biotin (human) (P08637 17-208): as the sequence (P08637 17-208 F176V) above, with V160F counted along it
Sequence of Recombinant FcγRI with C-terminus Biotin (human) (P12314 16-292): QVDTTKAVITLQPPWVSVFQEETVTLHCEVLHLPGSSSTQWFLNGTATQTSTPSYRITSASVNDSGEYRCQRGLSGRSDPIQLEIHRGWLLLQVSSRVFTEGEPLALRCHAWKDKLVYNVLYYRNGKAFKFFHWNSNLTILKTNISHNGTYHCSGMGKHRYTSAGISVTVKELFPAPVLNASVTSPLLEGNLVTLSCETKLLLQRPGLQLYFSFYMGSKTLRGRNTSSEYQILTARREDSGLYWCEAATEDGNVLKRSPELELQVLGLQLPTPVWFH
Sequence of Recombinant FcγRIIa (H131) with C-terminus Biotin (human) (P12318 34-217): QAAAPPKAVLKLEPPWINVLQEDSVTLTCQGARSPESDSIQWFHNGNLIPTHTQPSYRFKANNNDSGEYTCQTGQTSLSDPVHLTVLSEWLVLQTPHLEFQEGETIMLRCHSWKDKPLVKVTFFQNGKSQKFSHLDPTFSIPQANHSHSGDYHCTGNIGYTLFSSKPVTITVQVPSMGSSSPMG
Sequence of Human IgG3 (P01860 whole entry, looked up): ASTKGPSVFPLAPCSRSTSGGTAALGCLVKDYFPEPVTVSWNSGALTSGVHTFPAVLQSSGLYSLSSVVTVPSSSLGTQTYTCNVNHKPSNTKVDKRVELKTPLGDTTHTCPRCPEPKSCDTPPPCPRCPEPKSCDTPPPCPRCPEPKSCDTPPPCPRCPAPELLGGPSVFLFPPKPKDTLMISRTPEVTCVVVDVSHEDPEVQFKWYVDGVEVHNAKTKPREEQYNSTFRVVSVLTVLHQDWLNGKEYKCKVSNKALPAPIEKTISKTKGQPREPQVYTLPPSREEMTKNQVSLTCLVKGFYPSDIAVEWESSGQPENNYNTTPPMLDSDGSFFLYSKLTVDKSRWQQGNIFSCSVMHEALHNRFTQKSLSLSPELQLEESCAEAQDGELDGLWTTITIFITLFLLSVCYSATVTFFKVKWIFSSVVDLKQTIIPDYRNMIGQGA
Sequence of Recombinant FcγRIIb with C-terminus Biotin (human) (P31994 43-217): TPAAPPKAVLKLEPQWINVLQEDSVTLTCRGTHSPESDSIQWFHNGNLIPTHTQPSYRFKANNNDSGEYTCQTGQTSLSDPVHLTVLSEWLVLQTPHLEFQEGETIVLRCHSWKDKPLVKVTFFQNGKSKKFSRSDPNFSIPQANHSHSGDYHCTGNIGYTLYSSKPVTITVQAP
Sequence of Recombinant FcγRIIa (R131) with C-terminus Biotin (human) (UniProt P12318) (P12318 34-217 H167R): as the sequence (P12318 34-217) above, with H134R counted along it

Cetuximab (antibody)
Kd [1]: 1300 nM | Kd [2]: 17 nM | Kd [3]: 970 nM | Kd [4]: 1400 nM

Etanercept (Fc fusion)
Kd [2]: 14 nM | Kd [5]: 280 nM | Kd [3]: 410 nM | Kd [4]: 400 nM

Flebogamma (from UniProt P01857)
IC50 [6]: 15.2 nM | IC50 [7]: 37.3 nM | IC50 [8]: 111 nM | IC50 [9]: 117 nM | IC50 [10]: 918 nM

Gamunex (from UniProt P01857)
IC50 [11]: 17 nM | IC50 [12]: 110 nM | IC50 [13]: 2670 nM | IC50 [14]: 63.5 nM | IC50 [15]: 204 nM

Human IgG1 (from UniProt P01857)
IC50 [16]: 0.23 nM | IC50 [17]: 65 nM | IC50 [18]: 122 nM | IC50 [19]: 67 nM

Human IgG3 (from UniProt P01860)
IC50 [20]: 44.8 nM | IC50 [21]: 12.3 nM | IC50 [22]: 85 nM | IC50 [23]: 40.8 nM | IC50 [10]: 819 nM

Human IgG (human polyclonal IgG) (from UniProt P01857)
IC50 [24]: 0.11 nM | IC50 [25]: 4.64 nM | IC50 [26]: 15.7 nM | IC50 [27]: 25.8 nM | IC50 [28]: 99.4 nM | IC50 [29]: 989 nM

Human IgG Fc Fragment
IC50 [30]: 342 nM | IC50 [31]: 81 nM | IC50 [32]: 0.56 nM | IC50 [33]: 2280 nM

Infliximab (antibody)
Kd [1]: 350 nM | Kd [2]: 21 nM | Kd [5]: 120 nM | Kd [3]: 230 nM | Kd [4]: 340 nM

NIST mAb standard (antibody)
Kd [2]: 12 nM | Kd [5]: 420 nM | Kd [3]: 640 nM | Kd [4]: 800 nM

NIST mAb standard (from UniProt P01857)
IC50 [34]: 44.5 nM | IC50 [35]: 261 nM | IC50 [36]: 98.1 nM | IC50 [37]: 466 nM

Octagam (from UniProt P01857)
IC50 [38]: 80.9 nM | IC50 [39]: 131 nM | IC50 [40]: 18.9 nM | IC50 [41]: 249 nM | IC50 [10]: 2080 nM
